# The DeepSol protein solubility set
# Assay: soluble on expression in E. coli; label from the status in PepcDB or PDB records
row,Sequence,soluble on expression in E. coli
1,MEEMSMEKIVNDILKEEVYYEKLQNGLDVYFMPKRGFMKKYAILATNYGSNDLEFVPIGEDKKIRVNEGIAHFLEHKMFEQPDGGDAFDKFSKLGVNANAFTNFTMTAYLFSATENFYESLEHLIDYVQTPYFTDENVEKEKGIIAQEIKMYNDDPDWNVYFNCLKAMYVNYPARIDIAGTVDSIYKITKEELYKCYNTFYNPGNMALFVVGDLDVEKVIDVTKKS,not soluble
2,MANSAGSMTIFVISDSAGETASKLAAASMAQYPTVDFTLIRRTFVKDEDKLVQALEDAKKAEAMVLHTIINDHLVAIANQFFNEHQLFHFDILTPPVAEIERLTGVAPMREPGALHHLNENYFKRIEAMEFAVKYDDGKDPRGFLEADVLLLGVSRTSKTPLSLFLANKNLKVANLPLIPEAHLPKQLFEMDPKKIVGLTNDPNVLNGIRKERMRAYGLPENTSYSDIEKIRRELAFANDLYQKLGCIVIDVASLSIEETASMILNALNLEDHSYYSTETSEDLEHHHHHH,not soluble
3,ELNNLRMTYERLRELSLNLGNRMVPPVGNFMPDSILKKMAAILPMNDSAFATLGTVEDKYRRRFKYFKATIADLSKKRSSE,soluble
4,MQAVSVDETKNTVVLRAEHKNEEGRKSVDKFEVKTRNPETIKSVERKLMEKGVQRMDRHPSDGIPLRRPPSKSGHGGKYTWEGPDRMEDYEMQPDPPAMDEGDPNYDEEQVKKSGDDVAVELVKGEVEVAKEAPAGVARVEVDPRLVGR,soluble
5,DIGCYTLGLLPPFDAQDSSTDMGSSIGIANGVYRATGNIPIAVIGDSTFFHSGISALANAVYNQTPMLVLVLDNRSTAMTGQQPSPSKEIDIGEVAKGLGVKYVRYVDPFDVNSSIRELSNALKWVKDNKQPAVVIAKRACALLVMDNVEESNLPKA,not soluble
6,ASAFSESEETFVRIVAQWAGKEISRRRNQKRANAERERLRQIIDTIPQQVFVKDADGTYTLANKAAAAAHGVAVERLEGATHDEFALSDEQRDFKSDDAAVIENGESVHIEEDGLVEADGSSHTVQTDIVPIEIAS,not soluble
7,MAKENYSDPNGKLLNSITTFEVNGEEVKLSGNIIRDYLVSGNAEVTDQEIIMFLQLCKYQKLNPFLNEAYLVKFKNTKGPDKPAQIIVSKEAFMKRAETHEQYDGFEAGIIVERNGEVVEIEGAVSLDKDKLLGGWAKVFRKDRSRPVSVRISEREFNKRQSTWNAMPLTMMRKTAVVNAMREAFPDNLGAMYTEEEQGSLQNNETSVQEEIKQNANTEMLDIPAQQIEVPDFKEIREPEHVEMPPIYDEQPSTPPARPY,not soluble
8,MDSVCPQGKYIHPQNNSICCTKCHKGTYLYNDCPGPGQDTDCRECESGSFTASENHLRHCLSCSKCRKEMGQVEISSCTVDRDTVCGCRKNQYRHYWSENLFQCFNCSLCLNGTVHLSCQEKQNTVCTCHAGFFLRENECVSCSNCKKSLECTKLCLPQIEN,soluble
9,MGSDKIHHHHHHMTKQSKTQIRICFVGDSFVNGTGDPECLGWTGRVCVNANKKGYDVTYYNLGIRRDTSSDIAKRWLQEVSLRLHKEYNSLVVFSFGLNDTTLENGKPRVSIAETIKNTREILTQAKKLYPVLMISPAPYIEQQDPGRRRRTIDLSQQLALVCQDLDVPYLDVFPLLEKPSVWLHEAKANDGVHPQAGGYTEFARIVENWDAWLNWFR,soluble
10,MSLTIYHPAELPQRQAEKSPNKTIIKYYDRESKQWRNISWSKFAAGVMNAAKALAEIGLESGERIGIYSPNMVHCLYTELGAFAMRGVVVPLYATSSPEQLRFIVEDSSMETLFVGEQFQYNNAYRVQKEYGTLKRIVVFDERVVLNPEDKTSKYFSEFVRLGDSMPNETKVKVSSREAIPSDPALIIYTSGTSGRSKGVLLLHSNLMYQMKVHSEHIPVYGPGELSIAFLPMSHIFEKAWTLFCLTTGTRIAILRDPKKVLEALPQIRPSLMCNVPRFWEKVYQGVNEKMASSPRILKGVYRRAMAVGQRYRLDYWNEGKRAPLLLSMQYAFYNCTIFTLLKRVLGLQRGRYFPTAGAPLSDEINIFLQSVNIPIIVGYGLSETTATVSFYPQRGFKIGSMGKVMPGLDARIDPDNNEILVKGESVMSEYYNLPEETAGAFTPDGYFRTGDAGRMDPDGTLYFLERIKDLYKTANGKYIAPQMIEGMLTKDPIIEQIAVIGDRFKYVSALVYPNWELVRQAAIKRGLEQAREGHHHHHH,not soluble
11,MGSDKIHHHHHHMPTIVFVGAGSVRYTIKLVGDLAKTPDLYGSRLVLMDIDEERLKATYILVTKYLRELNAEYTVEQTTSLEEALEGADFVINTALYRAPGHEDGYVHYEIMREVGERHGYYRGIDSQELNMVSDYYTLSNYNHLKMSLDIAKAVEKIAPNAWILQTANPVFEITQLVKRLTKAKIVGFCHGYAHVFHLAKVLGVEPEELDWQVAGVNHAIWMNRFRCRGEDLYPKLDEWIEENASRWEPKNPWDVDFSPAAIDMYRFYGMYPIGDTVRSGTWKYHYDLETKKRWYGKFGGIDNEVERPKFYESLREQRKRLMELAKEVEKDPTIELTKVWPEVFTTGSESVEQHIPFINALVNDKKARLVLNVENRGVIKGIPDDVMVEVPVVVDKEGIHPEKIEPDLTDRIKKFYLLPRILRMEWALEAFISGDRRVLEEILVRDPRTRSYEQAVAVIDDILNLPFNEEMKKHYGS,not soluble
12,MGSDKIHHHHHHMTLQFLGAAREVTGSCHLVTVAGKHLLLDCGLIQGGKADELRNHEPFVFDPQTIVAVVLSHAHIDHSGRLPLLVKAGFDGPIYTHKATAELCAIMLKDAAMLQVRDTERTNKKRAKHDLAPLEPLFTVEDAEQAISQFVSLEYGQVTRVIPHVDICLSDAGHILGSALVELWLGEGKSQKKIVFSGDLGRAGMPILQNPTLVDTADLVLMESTYGNRFHRSWTDTLAELKDIFAKTVNESQGNILLPAFSVGRAQELLYLFHLYAKEWDLGRWKICLDSPMAIEATRVYVNNYPLMDEDFKRFTRQHPGQHPLLSNVEFIQTTEESIALNEVHKGLIIIAGSGMCNGGRIRSHLEHNLWRSECDVIICGFQALGTPGRALVDGAKELTIHGNSVNVAAKLHTVGGLSAHADQAELLRWYRHFEEQPPLVLVHGEPEAQQGLVAVMNQDPKTKPKALAIATRGDMLDLTALPKLVWVTA,not soluble
13,MTTQVKPIRSFLFVPGNKESMLDKAALAKADALILDLEDSVPPAEKLAARELVARKIPALIAQGQRIWVRINRSAHIYDLDDILAVAQPGVEGVVISKPWGPEDVYMASSMIAEAETRANLPLGSIGLIPLLETARSMQLCYEIAQMPRVVGIVGATAKNADMGRALKFVWTPEGRETEYLKSRVVMAARAAGKQAIGGIWQQIKDLEGLARSSAFDRQLGMSGELALHPMQVETINRTYTPTAEDVAYYQGMIDALDAAQAQGRASVMYDGEHIDIAHVKTAHEVIALARAFDAAAALEHHHHHH,soluble
14,MGSDKIHHHHHHMSNKPFYYQDPFPLSKDDTEYRLLSSDFVSVAQFEGQDILKVEPAALTLLAQQAFHDASFMLRPAHQQQVADILHDPEASENDKYVALQFLRNSEISAKGILPTCQDTGTAIIVGKKGQNVWTGGNDAEALSQGVYNTFIEDNLRYSQNAALDMYQEVNTGTNLPAQIDLYSTEGEDYKFLFVTKGGGSANKTYLYQETKALLTPGKLKSFLIEKMRSLGTAACPPYHIAFAIGGTSAETTLKTVKLASTKYYDELPTEGNEHGQAFRDVALEQEILEAARDLGLGAQFGGKYFAHDVRIIRLPRHGASCPVGMGVSCSADRNIKGKINRKGVWLEQLEQNPGKYIPEHLRETGEGDAVKIDLNRPMTEILKTLSQYPVSTRLSLTGTIIVGRDIAHAKLKERLDNGEGLPQYIKDHPIYYAGPAKTPEGYPSGSLGPTTAGRMDSYVDLLQANGGSMVMLAKGNRSQQVTDACHKHGGFYLGSIGGPAAILAQNSIKSLTCVEYPELGMEAIWKIEVEDFPAFILVDDKGNDFFQVIQSAKCVKCG,not soluble
15,SLPGKLALKLDPTILKHLAKNYDVIVITGTNGKTLTTALTVKVLREQYPDILTNPSGSNMKQGIVTTFLRAPKAHQKPLAVLEVDEANVIMVTKYITPKAFVFTNIFRDQMDRYGEIYTTYQKILDGVALAPEATIIANGDLPLFNAKQLPNPILYYGFDYQPDHDQQAPANTDGLLCPRCQHILRYHSRTYSNMGKYYCPHCGFERPQLTYKLNALTAMTPTSSDFEINGQAMHLNIGGQYNIYNALAAYAVGRFMDVTPAKIAHALSDNDEQV,not soluble
16,TMEPERLFNLIVKTTVDTLRAQIGYIILYSPREKNLQVTTLLGHTIPEGSTTTLPMKQSSVSTWVIENRRPLLITTMDEWPQFDRYSSLGYERRTLICAPLQIKDEIIGTITVVNKDDNSTYTIQELELLSTIAAQASIAIKNAQLYDEQQATYLHTIQALVSAIEAS,not soluble
17,MAAQPNAPESAWPVRELNSKVKSWIERLGHLWVEGQITQLNMKPSWKFSYITLRDPEAEASVQLTCATSLLHSLPSRLQDGDRVVVYGKPAFYEGRGSFSLWVTDIRPVGVGELLARIERLRQQLASEGLFDPALKKPLPFLPHTIGLITGRGSAAERDVLAVAHSRWPEVKFNVINTAVQGARAVPEIIEALQRLDADPSVDVIIIARGGGSVEDLLPFSEEALQRAVVAAHTPVVSAIGHEPDNPVLDNVADLRAATPTDAAKKVVPDVAAERQLIAELRSRSAAALRGWVHKERQQLAAVRSRPALADPVRAITLHREEIARSISSIRRDMRYMLSTERATVASLRQQVAALGPSATLARGYAVVQVVPRDGSAPEVVTTIGMSPPGSQLRIRVADGSITAAAMQTTPAD,not soluble
18,MGSDKIHHHHHHMLIFQYDFKIEFYNTVNSKNSIGGRLSGLRPRVVITTQNGAPDLNIFIQNTYSENNLITSKKAKLQIFNVPLDFSDFKTADIVKIYYKKFSDQQDYQFIMAGYLGAPVERIGGAENFSFECELYLLSRATFLERKFEYKNFKGSTIADAINYAFKDKAIFFMNELEKTKVIKESFACNSPKGLIEYLRRQGYVDAVIVDIGNPGQDVDLKFIFMNFEQFGAAEYKRLEDYGLLFVPQKDALGFKSGLSLYQAQVMFTHNIKIADNLSFKDRHGNTLDCKVKNTSARLSSTRECVLNLELYSKGEMYYAK,not soluble
19,MSLDIHDILVIDDSRLQRQHAMDLCRQLGIASVREAPDGERGLTLMRVQMPDLLLLDLEMPKQDGVQVMQEMARAGLSSPVIITSGKDYLLISTVELMGRELGLPVLGCLQKPLQLPALLDLMHRVWTPAERPDDAPLAADEVRVALEKGQIIPYYQPKVNLADGRVKGAEMLARWQHPDLGLIPPSRFIPVIEDNGWATELTMLMLRQGLTQWQEWARHGLRLPLSVNLSALSLRGDELVDEIECYVRGSHVPARFIIFEVTETAIVDNLAQAIGCAVRLRLAGLGLSIDDFGTGFATLQQLTRFPFTELKIDQSLVTGISDKPHLQAVFNSIIEMARRLQLATVAEGIETAEDYQLMAERGCQLGQGYYFARPLPAAAFLEWTRQPPVLPTAGEGHHHHHH,not soluble
20,MGSDKIHHHHHHMLHATAWRSALFTPTENSATSRDRADCGGIGGMSAAILLSRQGIQVDLVELNPLWAPGGAGITISGPTLRGLREVGVADEVLASGGFWNAVDVCDANSNLTVTVPIAPAVGADELPGVAGIMRTTLAEILGRATRKADTNARLGVTFETLTQDAEGVEVSFNDGSRARYDLVIGADGINSPVRKYVKPEFPGPPFTGQRSWRAVVPRLQENSLMYMGKTTKAGLNPISQTECYLFVLDKREGMDFIAPEQWPMMLAELLEEFGGAVGEFRRGPLDGSLMNHRLLYRPLAGHMINGPWHKGRIVLLGDAVHATTPHLASRAGIAVEGAIVLSEELARRRSLEGAFIAYAGRHYDRARLVVSASGRLGEIERESGSREEHTRIMIETQQALRAPI,not soluble
21,MIDLDSLEHIGVLGKPHGVQGECNARLTADLSTLFEEEERLFLFFELDALPVPFRLIGYREKTDDITLLRFAGIESKEEMEQYTGVSLFMERRYFDTDSIEFTWEHFIGFTVFDREGCFVGTIDDVDESTLNVLLSITTPEGKELLLPVAEDLLEEIDVPNRKLTMIIPDGLLQLLEHHHHHH,soluble
